{"source": "patent US9315793B2", "about": "“Enzymes that synthesize zingiberene” (Board of Trustees of Michigan State University, priority 2011, dated 2016)", "molecules": {"B1": {"name": "LA2167-ZIS: sesquiterpene (zingiberene) synthase of Solanum habrochaites accession LA2167, SEQ ID NO:2; codon-optimized form lacking chloroplast transit sequence SEQ ID NO:4 (protein)", "chain": "MIVGYRSTIITLSHPKLGNGKTISSNAIFRRSCRVRCSHSTPSSMNGFEDARDRIRESFGKVELSPSSYDTAWVAMVPSKHSLNEPCFPQCLDWIIENQREDGSWGLNPSHPLLLKDSLSSTLACLLALTKWRVGDEQIKRGLGFIETQSWAIDNKDQISPLGFEIIFPSMIKSAEKLNLNLAINKRDSTIKRALQNEFTRNIEYMSEGFGELCDWKEIIKLHQRQNGSLFDSPATTAAALIYHQHDKKCYEYLNSILQQHKNWVPTMYPTKIHSLLCLVDTLQNLGVHRHFKSEIKKALDEIYRLWQQKNEEIFSNVTHCAMAFRLLRISYYDVSSDELAEFVDEEHFFATSGKYTSHVEILELHKASQLAIDHEKDDILDKINNWTRTFMEQKLLNNGFIDRMSKKEVELALRNFYIISDLAENRRYIKSYEENNFKILKAAYRSPNINNKDLFIFSIRDFELCQAQHQEELQQLKRWFEDCRLDQLGLSEQFISASYLCAIPIVPGPELSDARLVYAKYVMLLTIVDDHFESFASTDECLNIIELVERWDDYASVGYKSERVKVLFSMFYKSIEEIATIAEIKQGRSVKNHLINLWLKVMKLMLMERVEWCSGKTIPRIEEYLYVSSITFGSRLIPLTTQYFIGIKISKDLLESDEIYGLCNFTGIVLRLLNDLQDSKREQKEGSINLVTLLMKSISEEEAIMKMKEILEMKRRELFKMVLVQKKGSQLPQLCKEIFWRTCKWAHFTYSQTDRYRFPEEMENHIDEVFYKPLNH", "modifications": "Solanum habrochaites"}}, "experiment": "Substrate specificity of recombinant LA2167-ZIS (GPP, NPP, EE-FPP or 2Z,6Z-FPP), GC-MS of products", "type": "biochemical, Solanum habrochaites", "conditions": "for substrate giving zingiberene (substrate specificity): no substrate, GPP, NPP, 2Z,6Z-FPP and E,E-FPP compared", "description": "The synthetic gene was excised from the pUC57 cloning vector by digestion with BamHI and SalI and ligated into the pHIS8 vector previously linearized by digestion with the same enzymes. Recombinant clones were transformed into E. coli BL21 cells. A 5-mL log-phase culture of E. coli BL21 cells containing the expression vector was induced by addition of IPTG to a final concentration of 0.1 mM. The induced cells were incubated with agitation at 25° C. for 16 h, and then harvested by centrifugation at 10,000 g for 15 min. The cell pellet was resuspended in 1 mL extraction buffer (50 mM HEPES pH 8, 5% glycerol, 100 mM KCl, 7.5 mM MgCl2 containing 1 mM dithiothreitol (DTT)) prior to sonication. Soluble proteins were harvested after centrifugation at 10,000 g for 20 min. The supernatant was used for subsequent enzyme assays. Two micrograms of soluble protein were mixed with 10 μM of substrate (GPP, NPP, EE-FPP or 2Z,6Z-FPP (Echelon Biosciences Inc., Salt Lake City, Utah)) in a 2-mL glass vial. Reactions were allowed to proceed for 30 min at 30° C., and the glass vial headspace was collected with a 65 μm polydimethylsiloxane-divinylbenzene solid-phase microextraction fiber (Supelco, Bellefonte, Pa.). After 5 min of exposure at 42° C., the SPME fiber was retracted and transferred to the GC injector port for desorption at 200° C. onto the GC column for 3 min. The terpenes were separated on a DB5 column (10 m length, inner diameter and 0.25 um). The GC-MS analysis was performed as described previously […] et al. (Plant Physiol 153, 1212-1223 (2010)).", "data": [{"molecule": "B1", "values": [{"measurement": "product synthesis with geranyl diphosphate (GPP) as substrate", "setting": "GPP supplied as substrate", "result": "failed to synthesize any products"}, {"measurement": "product synthesis with neryl diphosphate (NPP) as substrate", "setting": "NPP supplied as substrate", "result": "failed to synthesize any products"}, {"measurement": "substrate giving zingiberene (substrate specificity)", "result": "only observed when 2Z,6Z-farnesyl diphosphate is used as substrate"}, {"measurement": "substrate giving zingiberene (substrate specificity)", "setting": "listed as zingiberene synthase from accession LA2167", "result": "only uses 2Z,6Z-farnesyl diphosphate"}]}]}
